Data set [1] deals with T1, Human MMP-1 catalytic domain (Homo sapiens, UniProt P03956).
T1 construct: Human MMP-1 catalytic domain (recombinant, produced in E. coli, 19.9 kDa, >95% purity); purchased Enzo Life Sciences (Farmingdale, N.Y.); host or cells: E. coli
T1 sequence (P03956 100-269 limits assumed): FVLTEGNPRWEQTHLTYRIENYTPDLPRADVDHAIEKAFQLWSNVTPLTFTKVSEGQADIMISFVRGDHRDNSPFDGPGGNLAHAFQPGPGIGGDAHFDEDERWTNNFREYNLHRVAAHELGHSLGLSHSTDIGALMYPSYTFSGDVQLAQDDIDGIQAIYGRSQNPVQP
The data set can be described thus: Time-dependent aggregation (OD350) of ELP-substrate fusion with MMP-1 in proteolysis buffer. The data set is classed as biochemical. The conditions noted are these: 50 nM MMP-1 inhibitor added prior to 50 ng/mL (2.5 nM) MMP-1; ELP-substrate fusion 100 μM, 40° C., protease buffer; even after 900 minutes.

In data set [2] the test system is endogenous MMP-1 in human serum. As to the kind of experiment: Time-dependent aggregation (OD350) of ELP-substrate fusion in diluted human serum (40%). The data set is classed as biochemical. Conditions: diluted serum, without any added MMP-1, after 400 minutes, 37° C. The method, then: We performed the proteolysis reactions either in 100% protease buffer or in a mixture of human serum and buffer (40% (v/v) serum, 50% (v/v) buffer, 10% (v/v) ELP-substrate solution in water). The proteolysis buffer (100 mM HEPES, CaCl2 20 mM, MgCl2 1.0 mM, ZnCl2 100 μM, NaCl 0.5 M for diluted serum and 0.1 M for buffer solutions) was made experimentally in our lab based on previously published assays (Patterson, J. & Hubbell, J. A. Biomaterials 2010, 31, 7836-7845; Turk, B. E. et al., Nature Biotechnology 2001, 19, 661-667; Lowe, S. B. et al., Acs Nano 2012, 6, 851-857). We investigated proteolysis in two ways. In the first approach, we incubated solutions of the ELP-substrate fusion with MMP-1 (100 ng/mL) for 12 h at 40° C. temperature and measured the optical density at 350 nm (OD350) before and after the incubation. In the second approach, we incubated the ELP-substrate fusion with varying concentrations of MMP-1 (0.02 ng/mL to 200 ng/mL) in buffer or in diluted human serum, at 40° C. or 37° C. respectively, a temperature that is above the CMT of the ELP, and monitored the changes OD350 as a function of time (kinetic study). For the kinetic studies, we added the enzyme to the solution after the optical density of the solution reached a steady-state value and repeated the experiments at least three times. […]

The nature of data set [3]: Thermal behavior by optical turbidimetry and dynamic light scattering. The conditions noted are these: concentration of 100 μM. Format: physicochemical. The protocol: We confirmed the purity and molecular weight of the purified peptides by electrophoresis (10-20% gradient […] SDS-PAGE, Thermo Scientific, CA) and by matrix-assisted laser desorption/ionization mass spectrometry. Mass spectrometry samples were prepared by mixing the enzymatic reaction product with sinapinic acid in 1:10 ratio. 1 μL of the sample/matrix mixture was then loaded on the grid and the measurements were performed on a Voyager-DE-Pro instrument (Applied Biosystems, Germany). To determine the concentration of the ELP-substrate fusion solutions we used a calculated extinction coefficient (Gill, S. C. & Vonhippel, P. H. Analytical Biochemistry 1989, 182, 319-326) or lyophilized the polypeptide solution. We studied the thermal behavior of the ELP-substrate fusion constructs in both proteolysis buffer (see below) and diluted human serum in the presence and absence of MMP-1 using optical turbidimetry on a temperature-programmed UV-vis spectrometer (Cary 300, Agilent Technologies). To characterize the size of the micelles and aggregates, we used single angle dynamic light scattering (DLS; DynaPro, Protein Solution).
FIG. 2 presents optical densities at 350 nm (OD350) and hydrodynamic diameters of ELP-substrate fusion as a function of temperature prior to, and after, enzymatic reaction. […] These changes are consistent with the self-assembly of ELP-substrate fusions (unimers) into micelles as the temperature is raised above the CMT (Ghoorchian, A. et al., The Journal of Physical Chemistry. B 2013, 117, 8865-8874). We note that there is a slight local maximum in both the optical density and hydrodynamic diameter at temperatures slightly above the CMT, which has been observed previously (Hassouneh, W., Duke University, PhD thesis, 2013); the origin of this small peak is, as yet, unclear.

Data set [4] addresses active PSA (Homo sapiens, UniProt P07288). The data set can be described thus: Optical density of PSA peptide before and after incubation with active PSA. Conditions: 100 μM, 20 ng/mL active PSA, protease buffer, 37° C., 2 hours. The data set is classed as biochemical. The protocol: We designed a number of genes and replaced the MMP-1 sensitive peptide described above with a PSA-sensitive peptide sequence. One such example is: M(GVGVP)60[…] (SEQ ID NO:6; referred to herein as PSA peptide). Optical density measurements of 100 μM solution of PSA peptide were obtained prior to and after incubation with 20 ng/mL active PSA in protease buffer at 37° C. for 2 hours.

Data set [5] has as its target T2, MMP-1 (Homo sapiens, UniProt P03956).
T2 sequence (P03956 100-469): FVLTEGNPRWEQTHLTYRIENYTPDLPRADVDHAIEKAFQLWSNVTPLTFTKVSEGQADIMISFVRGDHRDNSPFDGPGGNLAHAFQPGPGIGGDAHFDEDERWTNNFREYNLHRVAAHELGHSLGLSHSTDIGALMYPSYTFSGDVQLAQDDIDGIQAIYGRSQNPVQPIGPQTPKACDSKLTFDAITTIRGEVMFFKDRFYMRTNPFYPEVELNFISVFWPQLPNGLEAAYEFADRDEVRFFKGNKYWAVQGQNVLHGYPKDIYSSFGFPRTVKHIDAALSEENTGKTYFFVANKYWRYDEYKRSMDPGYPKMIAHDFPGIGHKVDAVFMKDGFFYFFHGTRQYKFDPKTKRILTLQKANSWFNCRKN
As to the kind of experiment: Transition temperature of UCST biopolymer before and after incubation with MMP-1. The data set is classed as biochemical. The conditions noted are these: 25 μM, 25 ng/mL MMP-1, 37° C. The source says:
To exemplify the use of UCST peptides, we changed our system by incorporating a number of UCST biopolymers with the MMP-1 substrate, for example: M(YPSDGRGQ)40YGDGQ VPMSMRGGDEGQQDDEEGY (SEQ ID NO:7; referred to herein as the A4 construct). Cleavage of the protease-sensitive peptide between S and M in this sequence at a constant temperature would increase the transition temperature, which can cause the solution to transition from clear to cloudy. The time that takes for the transition to happen depends on the enzyme concentration similar to in the manner in which the LCST, micellar-based assays described above function.
Accordingly, aggregation time can be used to estimate the enzyme concentration in an unknown solution.

The source of these data is US20160348147A1, “SYSTEMS AND DEVICES FOR PROTEASE DETECTION BASED ON ENGINEERED POLYMERS AND BIOPOLYMERS AND METHODS OF USE” (DUKE UNIVERSITY, priority 2014, published 2016).

Sequence of active PSA (P07288 25-261): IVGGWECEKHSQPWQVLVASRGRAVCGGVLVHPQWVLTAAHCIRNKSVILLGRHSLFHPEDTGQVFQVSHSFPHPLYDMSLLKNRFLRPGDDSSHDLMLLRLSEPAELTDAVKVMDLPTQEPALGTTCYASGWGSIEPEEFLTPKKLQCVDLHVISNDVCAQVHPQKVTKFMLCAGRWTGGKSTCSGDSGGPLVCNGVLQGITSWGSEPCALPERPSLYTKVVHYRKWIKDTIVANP

For the compound `COc1ccc(S(=O)(=O)N(CC(=O)NO)CC(C)C)cc1` [NNGH, N-isobutyl-N-(4-methoxyphenylsulfonyl)glycyl hydroxamic acid, reference compound], in data set [1], the “change in optical density upon addition of the inhibitor” value is “no significant change in optical density”. For the same compound, the “aggregation in diluted serum with added MMP-1 inhibitor” value in data set [2] is listed as “no aggregation”.

Turning to (GVGVP)60 [reference compound], the “soluble unimer-aggregate Tt” value in data set [3] is “≈ 37 °C”.

On to “M(GVGVP)60GDGQSSIYSQTEEQQDDEEG (MGVGVPGDGQSSIYSQTEEQQDDEEG) [PSA peptide]”, for which the “optical density after incubation with active PSA” value in data set [4] was “increase in optical density of the solution above the transition temperature”.

Consider “M(YPSDGRGQ)40YGDGQ VPMSMRGGDEGQQDDEEGY (MYPSDGRGQYGDGQVPMSMRGGDEGQQDDEEGY) [A4 construct, MMP-sensitive-UCST biopolymer]”, for which the “transition temperature prior to and after incubation with MMP-1” value in data set [5] is “change in transition temperature”.
